Literature values in PMC10564622.
Read-outs that look alike come from different tables or passages of the source. Each block holds one substance with its values, some of them ahead of it.

Key:
CUL3 NTD (Homo sapiens) [1] = target: CUL3 NTD (Homo sapiens) (UniProt Q13618)
CUL3 NTD (Homo sapiens) [2] = target: CUL3 NTD (Homo sapiens) (UniProt Q13618); remark: listed apart in the source
[3] = target: CUL3 NTD with N-terminal deletion (Homo sapiens) (UniProt Q13618)
Chain of CUL3 NTD with N-terminal deletion (Homo sapiens) (Q13618 20-381, stated change not applied): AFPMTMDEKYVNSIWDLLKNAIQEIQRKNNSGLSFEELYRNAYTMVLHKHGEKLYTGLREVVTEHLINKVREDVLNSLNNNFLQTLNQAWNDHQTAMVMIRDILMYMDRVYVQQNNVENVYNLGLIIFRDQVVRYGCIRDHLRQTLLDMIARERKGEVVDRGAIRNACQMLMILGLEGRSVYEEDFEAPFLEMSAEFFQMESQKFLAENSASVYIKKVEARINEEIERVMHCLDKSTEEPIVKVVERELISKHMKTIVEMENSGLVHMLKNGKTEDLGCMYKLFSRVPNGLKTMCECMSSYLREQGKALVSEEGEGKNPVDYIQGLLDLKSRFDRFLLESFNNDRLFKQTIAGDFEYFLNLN

Chain of CUL3 NTD (Homo sapiens) (Q13618 20-381): as the sequence (Q13618 20-381, stated change not applied) above
Chain of SPOP BTB-3-box (O43791 177-319): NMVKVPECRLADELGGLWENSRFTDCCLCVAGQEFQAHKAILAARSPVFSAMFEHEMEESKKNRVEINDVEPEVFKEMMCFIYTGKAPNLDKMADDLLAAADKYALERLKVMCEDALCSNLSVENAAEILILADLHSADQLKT
Chain of SPOP BTB (O43791 170-300): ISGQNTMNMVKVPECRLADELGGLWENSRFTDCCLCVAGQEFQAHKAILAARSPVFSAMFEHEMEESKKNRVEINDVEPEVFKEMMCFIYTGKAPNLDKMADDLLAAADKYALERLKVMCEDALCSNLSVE
Chain of KLHL3 BTB-BACK (Q9UH77 24-276): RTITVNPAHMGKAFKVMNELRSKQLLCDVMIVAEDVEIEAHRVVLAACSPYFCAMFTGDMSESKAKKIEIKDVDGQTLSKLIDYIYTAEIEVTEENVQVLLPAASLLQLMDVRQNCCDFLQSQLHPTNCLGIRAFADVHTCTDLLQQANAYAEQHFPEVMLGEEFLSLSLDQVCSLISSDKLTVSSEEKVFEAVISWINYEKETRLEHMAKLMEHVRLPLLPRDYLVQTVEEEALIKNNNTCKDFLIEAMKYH

Kd (CUL3 NTD (Homo sapiens) [1]): 0.017 µM
Substance: SPOP BTB-3-box (from UniProt O43791)

Kd (CUL3 NTD (Homo sapiens) [2]): 1 µM
Substance: SPOP BTB (from UniProt O43791)

Kd [3]: 0.11 µM
Substance: KLHL3 BTB-BACK (from UniProt Q9UH77)
